Measured values published in the DeepSol protein solubility set.

Assay: soluble on expression in E. coli; label from the status in PepcDB or PDB records

Sequence	soluble on expression in E. coli
MTEITHRTKTRPVKVGNLTIGGNNEVVVQSMTTTKTHDVEATVAEIKRLEEAGCQVVRVACPDMRAAEAIPAIKKQISIPLVVDIHFDYKLALKAIEGGADKIRINPGNIGKRHKVEAVVKAAKEKGIPIRIGVNAGSLEKRILDKYGYPTADGMVESALHHIKILEDLDFHDIIVSMKASDVNLAIEAYEKAAKAFDYPLHLGITESGTLFAGTVKSAAGLGAILNMGIGNTVRVSLSADPVEEVKVARELLKSFGLASNAATLISCPTCGRIEIDLISIANEMEEYISKIRAPIKVAVLGCAVNGPGEAREADIGIAGARGEGLLFRKGEIVRKVPEETMVEELKKEIDKIAEEYFAKQKELEKA	not soluble
MTEKHKTMGKFKVIVLAGTAGTGKSTIAGELIHEFKDIYPDLKFIEGDDLHPPANVEKMTRGIPLNDDDRWDWLKKVAVESTKAAASTKEHLSIVACSSLKKKYRDLIRHTCPESEFHFIFLYASKIEVLKRLKTRKGHFMKADMMESQFRDLELPDINDETDCDIVPLDFKTFYQIEKDVIQVVKSKVLNIE	not soluble
MTELARLKFYATQPHSCSYLPDEQATTLFLDPSQPMDVHVYADLSEMGFRRSGDHLYRPHCQNCNACVPARIPATQFLPSRQQKRIIKRNSDLTVHAAKPCFSEEYFDLYQRYIEQRHADGDMFPPSRDQFSTFLVRDLPFSRFYEFRLDGRLLAVAVTDLLPNGLSAVYTFYEPDEERRSLGRFAILWQIGETLRLGLDAVYLGYWIKNCKKMNYKTQYRPIELLVNQRWVILNLEHHHHHH	not soluble
MTELEAAMGMIIDVFSRYSGSEGSTQTLTKGELKVLMEKELPGFLQSGKDKDAVDKLLKDLDANGDAQVDFSEFIVFVAAITSASHKYFEKTGLK	soluble
MTELSAFPITRKWPAKHPERLQLYSLPTPNGVKVSIMLEEIGLAYEAHKVSFDNDDQLSPEFISLSANNKIPAILDPNGPGGQPLALFESGAILQYLAEKSGQLLSQDPAQRYQTLQWLMFQMGGIGPMFGQVGFFHFFAGKEYEDKRPRDRYVNESKRLLGVLDRHLKGRQWMAEEYSIADIAIFPWVRNLVERYNARDLVGFDQFKEVQRVLANFLERPAVQRGLKIPG	not soluble
MTENEDLVAGLLLAAGGGRRLGGRPKALLEHRGRPLVEHVAGVLRAAGSTRVYVVLGAQAAAVRERAVLPGCILVDNPDWELGMGTSLRAGLEAMHGTGVRAALVSLVDQPGIGPAAVARVRAAYTSPSTLASAAYDGVRGHPVLFGAAHWAAVAASATGDRGARAYLKAHESAITLVECGDVAEAYDIDTVADLVHLELEHHHHHH	not soluble
MTEPLILQPAKPADACVIWLHGLGADRYDFMPVAEALQESLLTTRFVLPQAPTRPVTINGGYEMPSWYDIKAMSPARSISLEELEVSAKMVTDLIEAQKRTGIDASRIFLAGFSQGGAVVFHTAFINWQGPLGGVIALSTYAPTFGDELELSASQQRIPALCLHGQYDDVVQNAMGRSAFEHLKSRGVTVTWQEYPMGHEVLPQEIHDIGAWLAARLG	soluble
MTERSPLRVGIGGPVGSGKTALTLNLCRALRNKYNMAVVTNDIYTKEDSNFLTRNEAMTPDRIVGVETGGCPHTAIREDASINLAAIDDLCEKFDGLELIIIESGGDNLAATFSPELSDLTLYVIDVAGGEKIPRKGGPGITKSDLLIINKTDLAPMVGANLDVMEQDAKRMRGEKPFLFSNMKTEDGLTQIIEFIEKQGLFKALEHHHHHH	soluble
MTESFADLFEQSLQTLEFRPGSIVRGTVVAIENGMVLVDAGLKSESPIPAEQFKNAQGVLEIAVGDEVDVALDSVEDGFGETQLSREKAKRHEAWIVLEKAYEDAETVIGIINGKVKGGFTVELNGIRAFLPGSLVDVRPVRDTAHLEYKELEFKVIKLDQKRNNVVVSRRAVIESESSAERDALLENLQEGQAVKGIVKNLTDYGAFVDLGGVDGLLHITDMAWKRVKHPSEIVNVGDEINVKVLKYDRERTRVSLGLKQLGEDPWLEISKRYPENTKLTGRVTNLTDYGCFVEIEEGVEGLVHVSEMDWTNKNIHPSKVVNLGDEVEVLVLDIDEERRRISLGLKQCKTNPWDDFATRYNKGDKVSGKIKSITDFGIFIGLDGGIDGLVHLSDISWNGTGEDAVSEYKKGDEIHAVVLSVDPERERISLGVKQTEDDPFNAYLADKKKGTIVHGTVSAVDAKGVTVELADTVEGYIRVADISRERIEDASTVYSVGDAIEAKFMGVDRKNRSISLSIKAKDEAEEKEVMATLNKQEDAVISNAMAEAFKAARKLEHHHHHH	soluble
MTFAWGRGSHGGAGMRIVQITDTHFSPTKAHFNGNWAPLAAWIEQSGADLVIHTGDLSVDGADRDDDIAFCMDLMREISAPMLLVPGNHDVGHLPGSLQPVNAGRLERWRRLVGPDYWMEDAGSWRLIGLDSLLMGFDDAEEEAQFDWLRTVLESRGGRRVALFAHKPLFVDAPGEGDTGYWSVRPAQRQRLYDLIATHDVALFASGHLHRAWQGKYENTSLVWGPSAALEHHHHHH	soluble
MTFGEKLLNAASTRGRLCVGIDPHESLLTSWGLPVNVDGLAEFSRACVEAFADTVALVKPQVAFYERFGSAGFAILEETIQTLRERGCLVVSDAKRGDIGSTMAGYASAWLDPASPLSSDAVTVSPYLGFHSLDPVFELAEQHGRGVFVLAATSNPEARELQDQQNADGVSISQQIVDQAAALNAPYMAQGKAGNIGVVIGATLSKPPRLSTLGGAILMPGVGAQGGTASDVDEIAGDMAHLAFPNVSRSILATGPDIAEMKNSVAKNAADFPGFPRS	soluble
MTFIKRLEDAYETLLGNYPAGVSSTSTSKYNEIRKIVSEAFLIGENEVYVTGTSRRISNLDTRFAQGNQRNKHTRMAVAFISIPSVDDSELDELIIRTRNSAITTSSKFCNGEERGTIFDGILLFLVFEGETKVYPLAFLVFENDFELKEKAEELIPGIELKEYPRANQSPAQENNKSAKNEDEESAKSYVVFLDIEEDGSIVEFVEDKDKTYRIGDMIWTASHTNGSSAITRRLEVIEVVENLVVCKIKHKYNEPVDKNSLLKFVNIEQDLISFLDLHPNVQNGSEGFVSGDIVDENATTSSDDLPEDFENN	not soluble
MTFYDHLHASPYTWERVGNLLADATAADVERSLAYRRRTIQDFITLISPAAIPYLEQMARQAHALTVERFGHTMQLYIPLYLSNICSNACVYCGFSRSNKIHRRRLTAEEVDREAEAILRLGYKHLLLVSGESEKATPASYYEKMTRRLRPLFSQLSLEVQPLTTEEYARLHEAGIGAVYVYQETYNEQAYPTYHPAGRKADYRYRLETPDRIGRANMQKIGIGALLGLENWRVDSVFTALHLRYLEQTYWKSKFSISLPRLRPATGGWEPKDPIDDVGMVQLITAFRLLDKDVEISLSTRESREFRDHVMPLGITSVSAGSKTEPGGYAEENADLEQFAINDARSPAEMAADLRRLGYEPVWKDWDAFM	not soluble
MTGDYALCGWRVRIDRPSTFAPPWIGEDRPVDITIRHAAFSPPSPPLLFESPLVGVFAEGAIVLRINPGLGFLIEGGARITVDATAQTGEAEIATFLFGQCLGFLALQRRQPALRAASVVRDGRAVVLAGAAGVGKSTLAAALMAKGWGLLADEVTLIDPRTLLIPPAFGRIKLWKDSATHLGLEAAALPAVRPGWNKGHAPYGGHLAPAPVPLAAIILIEQAYTAKTAGIDKIAPREALAALNDQLHGGTFAGALAARPACFDLLTTLVGGVPVFQLSRPWHGMTLAPLVELLTAEMARLEHHHHHH	not soluble
MTGFDFSDKTVWVTGAGKGIGYATALAFVDAGARVIGFDREFTQENYPFATEVMDVADAAQVAQVCQRVLQKTTRLDVLVNAAGILRMGATDALSVDDWQQTFAVNVGGAFNLFSQTMAQFRRQQGGAIVTVASDAAHTPRIGMSAYGASKAALKSLALTVGLELAGCGVRCNVVSPGSTDTDMQRTLWVSEDAEQQRIRGFGEQFKLGIPLGKIARPQEIANTILFLASDLASHITLQDIVVDGGSTLGA	not soluble
MTGTERKVFQKYYPPDFDPSKIPRAKGQKNRQFVQRVMTPFNMQCNTCHEYIYKGKKFNMKRETAEGETYLGLKLFRFYFRCPNCLAEITFKTDLENCDYQNEHGATRLFEAVKLYQDQQKQVDEQEAEDAKDPMKMLEKRTMQSRQEMEEMGNLEDLQESSRTKECIDTIGFLSSTDPHIAQAQRIKMMEDEDDRMARELMGITSEGRIERRIKDDEDNSDGADEDDKDIPGPSASVVPSTSSMLKPAIPKLGMDDSGNSRKRNEQRDRFAGIKLIKKAKPSEPSTSSTASSTSSAPPPLPSSAASSGLSLLADYGSGSDSD	not soluble
MTHHTEVFEGGTIDIEDDTSLTINGKEISYVHDAVKNKWSSRYLPYTQYDSLLDLARAIIRDTVEFSGVKE	soluble
MTHLFALSELPLDEIHRLLDEAEAFRSGRIWRPAAPMYVANLFFEPSTRTKCSFEMAERKLGLHVIPFDPERSSVQKGETLYDTVRTLEAIGVDAVVIRHHEDAYFEALRHAVGIPIINAGDGCGHHPTQSLLDLLTIRQEFGAFTGLTVAIIGDIRHSRVARSNAEVLTRLGANVLFSGPAEWKDETNPYGTYVEVDEAIARADVVMLLRIQHERHAETMGLTKEEYHARYGLTLERARRMKSGAIILHPAPVNRGVEIASELVEAKASRIFKQMENGVYVRMAVLKRAMEGRMEHGRMAEKWHVVQ	soluble
MTHPIIHDLENRYTSKKYDPSKKVSQEDLAVLLEALRLSASSINSQPWKFIVIESDAAKQRMHDSFANMHQFNQPHIKACSHVILFANKLSYTRDDYDVVLSKAVADKRITEEQKEAAFASFKFVELNCDENGEHKAWTKPQAYLALGNALHTLARLNIDSTTMEGIDPELLSEIFADELKGYECHVALAIGYHHPSEDYNASLPKSRKAFEDVITIL	soluble
MTIASITLTNNRLEWQSLLPNTTPYEALFATASQLEPVAFSAYQPRLENGMTLFCHPQSQPRFMLIKAQESTDYLALIAQAVKALQPEASNLLGGDYLVHGHHVTWQSAQHGDERFAAQSTCLYQEWVEPEQLFGCVRMYKDQITLQPGLVHQVNGGVLILSVRALQAQPLMWLRLKQMIVQQRFDWLSTDETRPLPVHIPSMPLDLRLILVGDRLGLADFHDMEPELGDLAIYGEFEAELPLVDIEGMALWCGYINTLLQQKQLPALSADAWPVLFRQAVRYSGDQGSLPLCPQWLTQQLAEAALYAENDTISANALEAALNARNWRQNYLAERMQDEIELGQILVETEGHVVGQINALSVLEYPGHPHAFGEPARISCVVHLGDGEFVDVERKAELGGNIHAKGMMIMQAFLMSELELDQPLPFSASIVFEQSYGEVDGDSASLAELCALVSALSQQPINQQIAVTGSVDQFGNVQPIGGVNEKIEGFFETCQRRGLTGNQGVILPTTNVRHLCLNQAVVEAVQKGQFHLWAVDTVAEALPLLTGVTYDDEQQPSLLGAIQERIAQINPQDKRRWPWPLRWLNWFNQG	soluble
MTICRPGKGHLMIQFDAVHKRFPNGTTAVHDLSLEMPEGGVTVLVGSSGCGKTTTLRMINRMVDPTSGTIRVGGRDILEQDAAELRRSIGYVIQQSGLFPHRTVLDNIATVPLLLGWGRRKARARAAELLDTVGLAADAGRRYPHQLSGGQQQRVGVARALAADPPVLLMDEPFGAVDPVVRTQLQDELLRLQKELSKTIVFVTHDIDEAVRLGDQIAVFRTGGHLVQCASPAELLARPADDFVADFLGAERGLKLLSLTTLADVPQGPAPEGGAWTLVLDEARRPQHWRSKDGAELPVRPLRDRDSLLAALNESVASPNGLTVRVDADGVLTGVSSRDDIHEHAGRAHSEASVAALEHHHHHH	not soluble
